Data as given in PMC4691890, “Atomic structure of the apoptosome: mechanism of cytochrome c- and dATP-mediated activation of Apaf-1” (Genes & Development, 2015).

How the values were obtained:
[1] = target: T1, full-length human Apaf-1 (residues 1–1248) (human, UniProt O14727 1-1248); assay: ITC; Apaf-1 4 μM, CytC 60 μM; 100 mM KCl, 20 mM HEPES pH 7.5; 22°C; VP-ITC; details: both partners purified
T1 construct: Seven copies stand in the apoptosome that forms with CytC and dATP; source: Hi-5 insect cells (baculovirus), purified (Ni-NTA, gel filtration Superose 6)
T1 sequence (looked up): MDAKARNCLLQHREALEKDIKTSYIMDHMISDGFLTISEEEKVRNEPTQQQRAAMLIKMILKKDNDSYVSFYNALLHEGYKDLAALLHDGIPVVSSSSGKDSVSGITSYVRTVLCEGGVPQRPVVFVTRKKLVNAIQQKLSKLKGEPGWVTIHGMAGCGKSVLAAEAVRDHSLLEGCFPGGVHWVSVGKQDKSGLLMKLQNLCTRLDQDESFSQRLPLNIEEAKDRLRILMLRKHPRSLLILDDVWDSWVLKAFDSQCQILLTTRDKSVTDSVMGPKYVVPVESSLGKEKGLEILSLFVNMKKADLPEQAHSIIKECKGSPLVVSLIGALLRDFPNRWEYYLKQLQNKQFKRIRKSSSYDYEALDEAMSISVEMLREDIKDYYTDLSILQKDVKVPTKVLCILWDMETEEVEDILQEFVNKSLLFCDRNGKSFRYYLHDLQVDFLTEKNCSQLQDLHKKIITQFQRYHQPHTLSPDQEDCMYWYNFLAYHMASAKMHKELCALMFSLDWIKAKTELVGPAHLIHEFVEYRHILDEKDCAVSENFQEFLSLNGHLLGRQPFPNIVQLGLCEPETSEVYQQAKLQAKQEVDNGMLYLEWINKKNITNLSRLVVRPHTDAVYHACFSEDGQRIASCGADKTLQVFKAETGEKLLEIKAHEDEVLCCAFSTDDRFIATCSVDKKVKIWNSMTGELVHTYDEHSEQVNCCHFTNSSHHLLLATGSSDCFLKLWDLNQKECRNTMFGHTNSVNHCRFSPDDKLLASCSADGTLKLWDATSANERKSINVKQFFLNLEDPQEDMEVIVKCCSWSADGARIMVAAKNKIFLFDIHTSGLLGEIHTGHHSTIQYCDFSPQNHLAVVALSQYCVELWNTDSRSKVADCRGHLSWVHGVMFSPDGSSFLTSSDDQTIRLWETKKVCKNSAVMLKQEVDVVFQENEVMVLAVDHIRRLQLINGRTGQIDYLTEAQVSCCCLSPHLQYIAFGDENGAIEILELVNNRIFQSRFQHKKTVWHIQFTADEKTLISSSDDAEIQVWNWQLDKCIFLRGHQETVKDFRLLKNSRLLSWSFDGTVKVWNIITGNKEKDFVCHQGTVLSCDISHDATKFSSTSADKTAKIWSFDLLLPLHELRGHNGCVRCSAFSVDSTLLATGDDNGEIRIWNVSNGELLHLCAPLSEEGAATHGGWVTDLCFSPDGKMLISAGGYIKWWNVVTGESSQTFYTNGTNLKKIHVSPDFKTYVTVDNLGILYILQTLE

[2] = target: T1, full-length human Apaf-1 (residues …); assay: SEC; Apaf-1 incubated with CytC at a molar ratio of 1:2, Superdex-200 increase 5/150; 100 mM KCl, 20 mM HEPES pH 7.5, 5 mM DTT; fractions on SDS-PAGE; no dATP named; details: both partners purified

Binder	Ka [1] [M⁻¹]	Kd [1] [nM]	binding result [2]
untagged, full-length horse CytC (wild type, recombinant) (natural protein, cytochrome c, horse (Equus caballus), untagged, full length; Purification as in Yu et al. 2001; also called cytochrome c; wild-type CytC; source: E. coli BL21 (DE3), coexpressed with the yeast heme lyase CYC3, purified) not shown	~2.04e+06	~490	–
horse CytC K87W (natural protein, cytochrome c, horse, untagged, full length, mutant K87W; source: E. coli BL21 (DE3), coexpressed with the yeast heme lyase CYC3, purified) not shown	–	–	binds
